This note sets out measurements from patent US12618050B2, “Engineered polypeptides that exhibit increased catalytic efficiency for unnatural cofactors and uses thereof” (The Regents of the University of California, priority 2018, dated 2026).

Data set [1] is described as follows: GDH enzymatic assay with NMN^+ as cofactor. Format: biochemical. Particulars: for impact of mutation on activity towards NMN^+: without I195R. The protocol:
GDH enzymatic assays. The GDH activity was measured as described in Hilt et al. (Biochimica et biophysica acta 1076(2):298-304 (1991)). The reactions were started by adding the purified protein to the assay mixture containing 35 mM Tris-HCl buffer (pH 8.0), 3 mM NAD^+, NADP^+ or NMN^+ and 140 mM glucose. The absorbance variation at 340 nm was detected by a spectrophotometer at 25° C.

A short description of data set [2]: Protein expression levels of GDH variants. Details: species or system Escherichia coli. Particulars: expressed in E. coli. The procedure: Proteins were purified as 6×His tag fusion at the N-terminus. E. coli BL21 (DE3) with plasmids were inoculated into LB medium with 200 mg L^−1 ampicillin. Cells were induced with 0.5 mM IPTG and expressed for 24 hours at 30° C. with shaking at 250 rpm. BM3 cytochrome P450 was extracted with the EMD Millipore™ BugBuste Plus Lysonase Kit and purified using the HisPur™ Ni-NTA Superflow Purification System according to the manufacturer's instructions. Other proteins were purified using His-Spin Protein Miniprep kit (Zymo Research Corporation, CA). The purified proteins were quantified by Bradford assay.

[3] abbreviates: specific activity towards NMN^+.

B1: A93K: Bs GDH with A93K substitution (SEQ ID NO:3) (protein)
chain: MYPDLKGKVVAITGAASGLGKAMAIRFGKEQAKVVINYYSNKQDPNEVKEEVIKAGGEAVVVQGDVTKEEDVKNIVQTAIKEFGTLDIMINNKGLENPVPSHEMPLKDWDKVIGTNLTGAFLGSREAIKYFVENDIKGNVINMSSVHEVIPWPLFVHYAASKGGIKLMTETLALEYAPKGIRVNNIGPGAINTPINAEKFADPKQKADVESMIPMGYIGEPEEIAAVAAWLASKEASYVTGITLFADGGMTQYPSFQAGRG
modifications: A93K mutant GDH coding sequence
B1: in data set [1], the “impact of mutation on activity towards NMN^+” value (“impact of mutation” below) is “lack of impact on activity”.

B2: N92V (protein)
chain: MYPDLKGKVVAITGAASGLGKAMAIRFGKEQAKVVINYYSNKQDPNEVKEEVIKAGGEAVVVQGDVTKEEDVKNIVQTAIKEFGTLDIMINVAGLENPVPSHEMPLKDWDKVIGTNLTGAFLGSREAIKYFVENDIKGNVINMSSVHEVIPWPLFVHYAASKGGIKLMTETLALEYAPKGIRVNNIGPGAINTPINAEKFADPKQKADVESMIPMGYIGEPEEIAAVAAWLASKEASYVTGITLFADGGMTQYPSFQAGRG
Take B2: the Expression level in data set [2] turned out to be 57.56 μg protein/ml culture.

B3: M143G-L19G-I224R (protein)
chain: MYPDLKGKVVAITGAASGGGKAMAIRFGKEQAKVVINYYSNKQDPNEVKEEVIKAGGEAVVVQGDVTKEEDVKNIVQTAIKEFGTLDIMINNAGLENPVPSHEMPLKDWDKVIGTNLTGAFLGSREAIKYFVENDIKGNVINGSSVHEVIPWPLFVHYAASKGGIKLMTETLALEYAPKGIRVNNIGPGAINTPINAEKFADPKQKADVESMIPMGYIGEPEERAAVAAWLASKEASYVTGITLFADGGMTQYPSFQAGRG
For B3, in data set [2], the Expression level result is recorded as “No expression (<1) μg protein/ml culture”.

B4: A93K-Y39Q: Bs GDH variant A93K-Y39Q (protein)
chain: MYPDLKGKVVAITGAASGLGKAMAIRFGKEQAKVVINYQSNKQDPNEVKEEVIKAGGEAVVVQGDVTKEEDVKNIVQTAIKEFGTLDIMINNKGLENPVPSHEMPLKDWDKVIGTNLTGAFLGSREAIKYFVENDIKGNVINMSSVHEVIPWPLFVHYAASKGGIKLMTETLALEYAPKGIRVNNIGPGAINTPINAEKFADPKQKADVESMIPMGYIGEPEEIAAVAAWLASKEASYVTGITLFADGGMTQYPSFQAGRG
Turning to B4, the “impact of mutation” value in data set [1] is “lack of impact on activity”.

B5: I195T (protein)
chain: MYPDLKGKVVAITGAASGLGKAMAIRFGKEQAKVVINYYSNKQDPNEVKEEVIKAGGEAVVVQGDVTKEEDVKNIVQTAIKEFGTLDIMINNAGLENPVPSHEMPLKDWDKVIGTNLTGAFLGSREAIKYFVENDIKGNVINMSSVHEVIPWPLFVHYAASKGGIKLMTETLALEYAPKGIRVNNIGPGAINTPTNAEKFADPKQKADVESMIPMGYIGEPEEIAAVAAWLASKEASYVTGITLFADGGMTQYPSFQAGRG
In turn, B5 had an Expression level in data set [2] of 105.51 μg protein/ml culture.

B6: I195R-Y39Q: Bs GDH variant I195R Y39Q (protein)
chain: MYPDLKGKVVAITGAASGLGKAMAIRFGKEQAKVVINYQSNKQDPNEVKEEVIKAGGEAVVVQGDVTKEEDVKNIVQTAIKEFGTLDIMINNAGLENPVPSHEMPLKDWDKVIGTNLTGAFLGSREAIKYFVENDIKGNVINMSSVHEVIPWPLFVHYAASKGGIKLMTETLALEYAPKGIRVNNIGPGAINTPRNAEKFADPKQKADVESMIPMGYIGEPEEIAAVAAWLASKEASYVTGITLFADGGMTQYPSFQAGRG
As to B6, in data set [2], the Expression level is on record as 57.60 μg protein/ml culture. In addition, in data set [1] (setting [3]), the “lower activity than GDH Triple” value is 14 fold and the “slower than I195R” value came out at 2.4 fold.

B7: I195R-A93K: Bs GDH variant I195R A93K (protein)
chain: MYPDLKGKVVAITGAASGLGKAMAIRFGKEQAKVVINYYSNKQDPNEVKEEVIKAGGEAVVVQGDVTKEEDVKNIVQTAIKEFGTLDIMINNKGLENPVPSHEMPLKDWDKVIGTNLTGAFLGSREAIKYFVENDIKGNVINMSSVHEVIPWPLFVHYAASKGGIKLMTETLALEYAPKGIRVNNIGPGAINTPRNAEKFADPKQKADVESMIPMGYIGEPEEIAAVAAWLASKEASYVTGITLFADGGMTQYPSFQAGRG
For the molecule B7, in data set [2], the Expression level was determined as 11.17 μg protein/ml culture. The “lower activity than GDH Triple” value in data set [1] (setting [3]) is given as 9 fold.

B8: N92A (protein)
chain: MYPDLKGKVVAITGAASGLGKAMAIRFGKEQAKVVINYYSNKQDPNEVKEEVIKAGGEAVVVQGDVTKEEDVKNIVQTAIKEFGTLDIMINAAGLENPVPSHEMPLKDWDKVIGTNLTGAFLGSREAIKYFVENDIKGNVINMSSVHEVIPWPLFVHYAASKGGIKLMTETLALEYAPKGIRVNNIGPGAINTPINAEKFADPKQKADVESMIPMGYIGEPEEIAAVAAWLASKEASYVTGITLFADGGMTQYPSFQAGRG
Turning to B8, in data set [2], the Expression level is 81.16 μg protein/ml culture.

B9: L19H-I191S (protein)
chain: MYPDLKGKVVAITGAASGHGKAMAIRFGKEQAKVVINYYSNKQDPNEVKEEVIKAGGEAVVVQGDVTKEEDVKNIVQTAIKEFGTLDIMINNAGLENPVPSHEMPLKDWDKVIGTNLTGAFLGSREAIKYFVENDIKGNVINMSSVHEVIPWPLFVHYAASKGGIKLMTETLALEYAPKGIRVNNIGPGASNTPINAEKFADPKQKADVESMIPMGYIGEPEEIAAVAAWLASKEASYVTGITLFADGGMTQYPSFQAGRG
In the case of B9, in data set [2], the Expression level entry is “No expression (<1) μg protein/ml culture”.

B10: Y39Q: Bs GDH with Y39Q substitution (SEQ ID NO:4) (protein)
chain: MYPDLKGKVVAITGAASGLGKAMAIRFGKEQAKVVINYQSNKQDPNEVKEEVIKAGGEAVVVQGDVTKEEDVKNIVQTAIKEFGTLDIMINNAGLENPVPSHEMPLKDWDKVIGTNLTGAFLGSREAIKYFVENDIKGNVINMSSVHEVIPWPLFVHYAASKGGIKLMTETLALEYAPKGIRVNNIGPGAINTPINAEKFADPKQKADVESMIPMGYIGEPEEIAAVAAWLASKEASYVTGITLFADGGMTQYPSFQAGRG
modifications: Y39Q mutant GDH coding sequence
As for B10, in data set [1], the “impact of mutation” value was “lack of impact on activity”.

B11: M143S (protein)
chain: MYPDLKGKVVAITGAASGLGKAMAIRFGKEQAKVVINYYSNKQDPNEVKEEVIKAGGEAVVVQGDVTKEEDVKNIVQTAIKEFGTLDIMINNAGLENPVPSHEMPLKDWDKVIGTNLTGAFLGSREAIKYFVENDIKGNVINSSSVHEVIPWPLFVHYAASKGGIKLMTETLALEYAPKGIRVNNIGPGAINTPINAEKFADPKQKADVESMIPMGYIGEPEEIAAVAAWLASKEASYVTGITLFADGGMTQYPSFQAGRG
In data set [2], B11 registered an Expression level of 40.60 μg protein/ml culture.

B12: I195S (protein)
chain: MYPDLKGKVVAITGAASGLGKAMAIRFGKEQAKVVINYYSNKQDPNEVKEEVIKAGGEAVVVQGDVTKEEDVKNIVQTAIKEFGTLDIMINNAGLENPVPSHEMPLKDWDKVIGTNLTGAFLGSREAIKYFVENDIKGNVINMSSVHEVIPWPLFVHYAASKGGIKLMTETLALEYAPKGIRVNNIGPGAINTPSNAEKFADPKQKADVESMIPMGYIGEPEEIAAVAAWLASKEASYVTGITLFADGGMTQYPSFQAGRG
As for B12, the Expression level in data set [2] was 96.33 μg protein/ml culture.

B13: G94S (protein)
chain: MYPDLKGKVVAITGAASGLGKAMAIRFGKEQAKVVINYYSNKQDPNEVKEEVIKAGGEAVVVQGDVTKEEDVKNIVQTAIKEFGTLDIMINNASLENPVPSHEMPLKDWDKVIGTNLTGAFLGSREAIKYFVENDIKGNVINMSSVHEVIPWPLFVHYAASKGGIKLMTETLALEYAPKGIRVNNIGPGAINTPINAEKFADPKQKADVESMIPMGYIGEPEEIAAVAAWLASKEASYVTGITLFADGGMTQYPSFQAGRG
B13 gave an Expression level in data set [2] of 117.50 μg protein/ml culture.

B14: S17Q-P194N (protein)
chain: MYPDLKGKVVAITGAAQGLGKAMAIRFGKEQAKVVINYYSNKQDPNEVKEEVIKAGGEAVVVQGDVTKEEDVKNIVQTAIKEFGTLDIMINNAGLENPVPSHEMPLKDWDKVIGTNLTGAFLGSREAIKYFVENDIKGNVINMSSVHEVIPWPLFVHYAASKGGIKLMTETLALEYAPKGIRVNNIGPGAINTNINAEKFADPKQKADVESMIPMGYIGEPEEIAAVAAWLASKEASYVTGITLFADGGMTQYPSFQAGRG
Take B14: the Expression level in data set [2] was 117.63 μg protein/ml culture.

B15: M143T (protein)
chain: MYPDLKGKVVAITGAASGLGKAMAIRFGKEQAKVVINYYSNKQDPNEVKEEVIKAGGEAVVVQGDVTKEEDVKNIVQTAIKEFGTLDIMINNAGLENPVPSHEMPLKDWDKVIGTNLTGAFLGSREAIKYFVENDIKGNVINTSSVHEVIPWPLFVHYAASKGGIKLMTETLALEYAPKGIRVNNIGPGAINTPINAEKFADPKQKADVESMIPMGYIGEPEEIAAVAAWLASKEASYVTGITLFADGGMTQYPSFQAGRG
In data set [2], B15 came in with an Expression level of 94.55 μg protein/ml culture.
